Measurements taken from paper PMC6555819, “Comprehensive study of nuclear receptor DNA binding provides a revised framework for understanding receptor specificity”.

B1: NRC3_wobSeed93_DR3_T12A_o1 (dsDNA)
DNA 1: GCAGTCAAAGTACATCTAGGTAACGTAAGATATGCTGCGATTGACAGCGTAGAATGAAGG
DNA 2: CCTTCATTCTACGCTGTCAATCGCAGCATATCTTACGTTACCTAGATGTACTTTGACTGC
B2: NRC3_wobSeed74_DR3_G17T_o1 (dsDNA)
DNA 1: GCTCTAGTTGGTCACGTAGGTCACACACGACGGGTAGCGATTGACAGCGTAGAATGAAGG
DNA 2: CCTTCATTCTACGCTGTCAATCGCTACCCGTCGTGTGTGACCTACGTGACCAACTAGAGC
B3: NRC3_wobSeed74_DR3_G20C_o1 (dsDNA)
DNA 1: GCTCTAGTTGGTCACGGAGCTCACACACGACGGGTAGCGATTGACAGCGTAGAATGAAGG
DNA 2: CCTTCATTCTACGCTGTCAATCGCTACCCGTCGTGTGTGAGCTCCGTGACCAACTAGAGC
B4: NRC3_wobSeed88_DR3_T25A_o1 (dsDNA)
DNA 1: GCTAGCCTAGGTCATGCGGGCCAGAATAGTGTCGGCGCGATTGACAGCGTAGAATGAAGG
DNA 2: CCTTCATTCTACGCTGTCAATCGCGCCGACACTATTCTGGCCCGCATGACCTAGGCTAGC
B5: NRC3_wobSeed88_DR3_A28G_o1 (dsDNA)
DNA 1: GCTAGCCTAGGTCATGCGGGCCAGTATGGTGTCGGCGCGATTGACAGCGTAGAATGAAGG
DNA 2: CCTTCATTCTACGCTGTCAATCGCGCCGACACCATACTGGCCCGCATGACCTAGGCTAGC
B6: NRC3_wobSeed142_DR5_A5G_o1 (dsDNA)
DNA 1: GCATGCCAAGGTGATCGTGAGGTCGTTGATACTAACGCGATTGACAGCGTAGAATGAAGG
DNA 2: CCTTCATTCTACGCTGTCAATCGCGTTAGTATCAACGACCTCACGATCACCTTGGCATGC
B7: NRC3_wobSeed142_DR5_G21T_o1 (dsDNA)
DNA 1: GCATACCAAGGTGATCGTGATGTCGTTGATACTAACGCGATTGACAGCGTAGAATGAAGG
DNA 2: CCTTCATTCTACGCTGTCAATCGCGTTAGTATCAACGACATCACGATCACCTTGGTATGC
B8: NRC3_wobSeed58_DR2_C13G_o1 (dsDNA)
DNA 1: GCATCGAAAGGTGGTGAGGTGAGTATACAGAAAGGCGCGATTGACAGCGTAGAATGAAGG
DNA 2: CCTTCATTCTACGCTGTCAATCGCGCCTTTCTGTATACTCACCTCACCACCTTTCGATGC
B9: NRC3_wobSeed125_DR5_G10C_o1 (dsDNA)
DNA 1: GCCCTTACGCGTCACTGACAGGTTATAGCATTTGGAGCGATTGACAGCGTAGAATGAAGG
DNA 2: CCTTCATTCTACGCTGTCAATCGCTCCAAATGCTATAACCTGTCAGTGACGCGTAAGGGC
B10: NRC3_wobSeed125_DR5_G11C_o1 (dsDNA)
DNA 1: GCCCTTACGGCTCACTGACAGGTTATAGCATTTGGAGCGATTGACAGCGTAGAATGAAGG
DNA 2: CCTTCATTCTACGCTGTCAATCGCTCCAAATGCTATAACCTGTCAGTGAGCCGTAAGGGC
B11: NRC3_wobSeed17_DR0_T18C_o1 (dsDNA)
DNA 1: GCATATGTAGGTTAGGGCCATTCAGAAAGTAGGGAAGCGATTGACAGCGTAGAATGAAGG
DNA 2: CCTTCATTCTACGCTGTCAATCGCTTCCCTACTTTCTGAATGGCCCTAACCTACATATGC
B12: NRC3_wobSeed17_DR0_T18A_o1 (dsDNA)
DNA 1: GCATATGTAGGTTAGGGACATTCAGAAAGTAGGGAAGCGATTGACAGCGTAGAATGAAGG
DNA 2: CCTTCATTCTACGCTGTCAATCGCTTCCCTACTTTCTGAATGTCCCTAACCTACATATGC
B13: NRC3_wobSeed18_DR0_C13A_o1 (dsDNA)
DNA 1: GCGATACAGGGTAAAGGCCAGAGTACGCGTATTGATGCGATTGACAGCGTAGAATGAAGG
DNA 2: CCTTCATTCTACGCTGTCAATCGCATCAATACGCGTACTCTGGCCTTTACCCTGTATCGC
B14: NRC3_wobSeed5_DR0_T6A_o1 (dsDNA)
DNA 1: GCCCTAACGGGTCAAGGTTATAGCACGGGTGGTACGGCGATTGACAGCGTAGAATGAAGG
DNA 2: CCTTCATTCTACGCTGTCAATCGCCGTACCACCCGTGCTATAACCTTGACCCGTTAGGGC
B15: NRC3_wobSeed110_DR4_C7A_o1 (dsDNA)
DNA 1: GCTCTGATAGGTCAACGATGGTCAGCTAATCTGCTAGCGATTGACAGCGTAGAATGAAGG
DNA 2: CCTTCATTCTACGCTGTCAATCGCTAGCAGATTAGCTGACCATCGTTGACCTATCAGAGC
B16: NRC3_random_hg19_125_o1 (dsDNA)
DNA 1: GCCAACCTACCAAACCATAACCAGTGTGTTTGCTCCGCGATTGACAGCGTAGAATGAAGG
DNA 2: CCTTCATTCTACGCTGTCAATCGCGGAGCAAACACACTGGTTATGGTTTGGTAGGTTGGC
B17: NRC3_wobSeed99_DR4_T5C_o1 (dsDNA)
DNA 1: GCTCCCGGAGGACACGAAAGGTCAGAGCTCGACATCGCGATTGACAGCGTAGAATGAAGG
DNA 2: CCTTCATTCTACGCTGTCAATCGCGATGTCGAGCTCTGACCTTTCGTGTCCTCCGGGAGC
B18: NRC3_wobSeed4_DR0_T22C_o1 (dsDNA)
DNA 1: GCCCTACTGGGCCAAGGTCATCGATCAGTCAAAGCAGCGATTGACAGCGTAGAATGAAGG
DNA 2: CCTTCATTCTACGCTGTCAATCGCTGCTTTGACTGATCGATGACCTTGGCCCAGTAGGGC
B19: NRC3_wobSeed61_DR2_G10T_o1 (dsDNA)
DNA 1: GCCGTCCAATGTCAGCAGGTCAGTGAAAGCGACGTGGCGATTGACAGCGTAGAATGAAGG
DNA 2: CCTTCATTCTACGCTGTCAATCGCCACGTCGCTTTCACTGACCTGCTGACATTGGACGGC
B20: NRC3_wobSeed130_DR5_G14T_o1 (dsDNA)
DNA 1: GCCTCGAAAGGTCTTGCTCAGGTGAGTATACCAAACGCGATTGACAGCGTAGAATGAAGG
DNA 2: CCTTCATTCTACGCTGTCAATCGCGTTTGGTATACTCACCTGAGCAAGACCTTTCGAGGC
B21: NRC3_random_hg19_409_o1 (dsDNA)
DNA 1: GCGACTGCACTCCAGCCTGGGTGACACAACAAGACTGCGATTGACAGCGTAGAATGAAGG
DNA 2: CCTTCATTCTACGCTGTCAATCGCAGTCTTGTTGTGTCACCCAGGCTGGAGTGCAGTCGC
B22: NRC3_wobSeed81_DR3_C22G_o1 (dsDNA)
DNA 1: GCATCTCTAGGTAACCAAGTTGAGTGAATGCCGAACGCGATTGACAGCGTAGAATGAAGG
DNA 2: CCTTCATTCTACGCTGTCAATCGCGTTCGGCATTCACTCAACTTGGTTACCTAGAGATGC
B23: NRC3_wobSeed81_DR3_C22A_o1 (dsDNA)
DNA 1: GCATCTCTAGGTAACCAAGTTAAGTGAATGCCGAACGCGATTGACAGCGTAGAATGAAGG
DNA 2: CCTTCATTCTACGCTGTCAATCGCGTTCGGCATTCACTTAACTTGGTTACCTAGAGATGC
B24: NRC3_random_hg19_370_o1 (dsDNA)
DNA 1: GCTTTCTTTCTCTCTTGTCTGATTGCTCTGGCTAGAGCGATTGACAGCGTAGAATGAAGG
DNA 2: CCTTCATTCTACGCTGTCAATCGCTCTAGCCAGAGCAATCAGACAAGAGAGAAAGAAAGC
B25: NRC3_random_hg19_191_o1 (dsDNA)
DNA 1: GCAGGAGAGACAGAGGAAGAGATGTGACATCAGAAGGCGATTGACAGCGTAGAATGAAGG
DNA 2: CCTTCATTCTACGCTGTCAATCGCCTTCTGATGTCACATCTCTTCCTCTGTCTCTCCTGC
B26: NRC3_random_hg19_17_o1 (dsDNA)
DNA 1: GCCTGCAGTTTCACTTTGCATGTCTTCTTTCCTCAAGCGATTGACAGCGTAGAATGAAGG
DNA 2: CCTTCATTCTACGCTGTCAATCGCTTGAGGAAAGAAGACATGCAAAGTGAAACTGCAGGC
B27: NRC3_wobSeed6_DR0_T22A_o1 (dsDNA)
DNA 1: GCCCTAGCAGGCCAGGGTCACACAAGCATTTCGCTTGCGATTGACAGCGTAGAATGAAGG
DNA 2: CCTTCATTCTACGCTGTCAATCGCAAGCGAAATGCTTGTGTGACCCTGGCCTGCTAGGGC
B28: NRC3_random_hg19_274_o1 (dsDNA)
DNA 1: GCTTCGTGCCCTTCCCTTGGACAGACTCCCTTGGCAGCGATTGACAGCGTAGAATGAAGG
DNA 2: CCTTCATTCTACGCTGTCAATCGCTGCCAAGGGAGTCTGTCCAAGGGAAGGGCACGAAGC
B29: NRC3_wobSeed98_DR4_G20T_o1 (dsDNA)
DNA 1: GCACTAGTTGGTCAGCTGATGTCACACACAATTCGGGCGATTGACAGCGTAGAATGAAGG
DNA 2: CCTTCATTCTACGCTGTCAATCGCCCGAATTGTGTGTGACATCAGCTGACCAACTAGTGC
B30: NRC3_wobSeed46_DR1_A15T_o1 (dsDNA)
DNA 1: GCTTACCAAGGTGATAGGTCGTTGATGCACGCCTTGGCGATTGACAGCGTAGAATGAAGG
DNA 2: CCTTCATTCTACGCTGTCAATCGCCAAGGCGTGCATCAACGACCTATCACCTTGGTAAGC
B31: NRC3_wobSeed114_DR4_G10T_o1 (dsDNA)
DNA 1: GCAATACAGTGTCATCGTAGGCCAGAGTACGCACAGGCGATTGACAGCGTAGAATGAAGG
DNA 2: CCTTCATTCTACGCTGTCAATCGCCTGTGCGTACTCTGGCCTACGATGACACTGTATTGC
B32: NRC3_wobSeed114_DR4_G11A_o1 (dsDNA)
DNA 1: GCAATACAGGATCATCGTAGGCCAGAGTACGCACAGGCGATTGACAGCGTAGAATGAAGG
DNA 2: CCTTCATTCTACGCTGTCAATCGCCTGTGCGTACTCTGGCCTACGATGATCCTGTATTGC
B33: NRC3_wobSeed100_DR4_A24T_o1 (dsDNA)
DNA 1: GCCCTACTGGGCCACGAAAGGTCTTTGATTCAGTGAGCGATTGACAGCGTAGAATGAAGG
DNA 2: CCTTCATTCTACGCTGTCAATCGCTCACTGAATCAAAGACCTTTCGTGGCCCAGTAGGGC

Each binder was assayed against VDR:RXRa (Homo sapiens, UniProt P11473;P19793 full;full) (assay: no ligand; PBM; 270 nM : 90 nM RXRa; PBS pH 7.4, 2% milk, 0.02% Triton X-100, 1 mM DTT, BSA, 0.4 mg/ml salmon testes DNA). Details: tags: His kept;His cleaved; copies: 1;1; label: surface-attached array probe.
Sequence of VDR:RXRa (P11473 whole entry, chain 1 of 2): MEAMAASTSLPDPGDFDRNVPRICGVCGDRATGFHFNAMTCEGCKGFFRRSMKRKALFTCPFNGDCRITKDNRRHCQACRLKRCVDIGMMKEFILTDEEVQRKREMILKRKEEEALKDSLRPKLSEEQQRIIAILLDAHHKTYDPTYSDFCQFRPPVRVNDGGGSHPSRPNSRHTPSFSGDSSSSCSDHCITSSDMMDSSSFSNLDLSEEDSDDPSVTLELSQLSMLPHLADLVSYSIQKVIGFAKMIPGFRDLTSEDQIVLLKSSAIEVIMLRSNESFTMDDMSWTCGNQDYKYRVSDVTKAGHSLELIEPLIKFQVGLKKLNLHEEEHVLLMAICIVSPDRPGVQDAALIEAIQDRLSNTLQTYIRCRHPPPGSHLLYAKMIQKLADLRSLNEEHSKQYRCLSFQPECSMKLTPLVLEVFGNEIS
Sequence of VDR:RXRa (P19793 whole entry, chain 2 of 2): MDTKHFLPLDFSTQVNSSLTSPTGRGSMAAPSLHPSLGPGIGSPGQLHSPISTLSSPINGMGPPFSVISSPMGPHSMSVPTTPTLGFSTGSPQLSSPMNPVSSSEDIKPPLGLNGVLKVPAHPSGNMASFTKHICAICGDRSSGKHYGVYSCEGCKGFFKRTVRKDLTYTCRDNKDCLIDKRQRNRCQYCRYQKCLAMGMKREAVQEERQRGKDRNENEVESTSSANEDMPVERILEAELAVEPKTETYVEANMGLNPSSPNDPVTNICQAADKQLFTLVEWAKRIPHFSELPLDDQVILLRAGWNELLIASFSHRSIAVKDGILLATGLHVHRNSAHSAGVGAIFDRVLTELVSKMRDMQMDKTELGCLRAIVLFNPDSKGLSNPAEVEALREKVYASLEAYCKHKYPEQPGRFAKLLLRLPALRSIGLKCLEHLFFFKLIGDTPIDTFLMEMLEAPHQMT
Summary of the method: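 On custom Agilent 4×180K arrays, double-stranded probes with 34-nt variable regions carried direct-repeat seeds, single-nucleotide variants, half-site ablations or random human genomic background. Ligand-free nuclear receptor dimers were applied for 1 h, and binding was read with antibodies against each partner (one per run). Binding z-scores come from regression-normalized fluorescence, with the random background probes as reference.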
B1 was tested, and the binding signal was 0.15 PBM z-score against 500 random probes. With B2 the binding signal was 3.15 PBM z-score against 500 random probes. In the case of B3, the binding signal is reported as 0.37 PBM z-score against 500 random probes. With B4 the binding signal was 3.12 PBM z-score against 500 random probes. In the case of B5, the binding signal is reported as 3 PBM z-score against 500 random probes. For B6, the binding signal was 3.08 PBM z-score against 500 random probes. In the case of B7, the binding signal is reported as 0.3 PBM z-score against 500 random probes. B8 was tested, and the binding signal was 0.28 PBM z-score against 500 random probes. In the case of B9, the binding signal is reported as 0.17 PBM z-score against 500 random probes. B10 was tested, and the binding signal was 0.16 PBM z-score against 500 random probes. B11 was tested, and the binding signal was 0.42 PBM z-score against 500 random probes. For B12, the binding signal was 0.41 PBM z-score against 500 random probes. In the case of B13, the binding signal is reported as 0.02 PBM z-score against 500 random probes. In the case of B14, the binding signal is reported as 3.06 PBM z-score against 500 random probes. With B15 the binding signal was 3.1 PBM z-score against 500 random probes. In the case of B16, the binding signal is reported as 0.33 PBM z-score against 500 random probes. With B17 the binding signal was 3.26 PBM z-score against 500 random probes. In the case of B18, the binding signal is reported as 3.17 PBM z-score against 500 random probes. B19 was tested, and the binding signal was 0.44 PBM z-score against 500 random probes. In the case of B20, the binding signal is reported as 0.2 PBM z-score against 500 random probes. B21 was tested, and the binding signal was -0.08 PBM z-score against 500 random probes. In the case of B22, the binding signal is reported as 0.49 PBM z-score against 500 random probes. With B23 the binding signal was 0.37 PBM z-score against 500 random probes. B24 was tested, and the binding signal was 0.44 PBM z-score against 500 random probes. B25 was tested, and the binding signal was 0.21 PBM z-score against 500 random probes. In the case of B26, the binding signal is reported as 0.19 PBM z-score against 500 random probes. For B27, the binding signal was 3.03 PBM z-score against 500 random probes. B28 was tested, and the binding signal was 0.25 PBM z-score against 500 random probes. With B29 the binding signal was 0.23 PBM z-score against 500 random probes. With B30 the binding signal was 0.48 PBM z-score against 500 random probes. In the case of B31, the binding signal is reported as 0.5 PBM z-score against 500 random probes. B32 was tested, and the binding signal was 0.25 PBM z-score against 500 random probes. For B33, the binding signal was -0.14 PBM z-score against 500 random probes.
